Experimental data from the supplement of paper PMC10724198.

What was measured:
[1] = tested on: Saccharomyces cerevisiae; test: protein stability index of tFT-peptide fusion in wild type (PSI (0-1 scale)); higher = more stable (slower turnover); settings: genetic background: wild type
Description: (§1)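 MPS profiling in S. cerevisiae of two library types built from selected 12-aa C-degron peptides (IN1, IN2, LN1, LN3, VN2, R1-R5, W1-W3, Atg1 and Rpa12 C-termini): saturation mutagenesis libraries and C-terminal +1 capping libraries (13 aa). Each peptide is fused to the C-terminus of a sfGFP-mCherry timer, after a GGGS linker. Cells are FACS-sorted into 8 mCherry/sfGFP bins and sequenced. PSI runs from 0 (unstable) to 1 (stable), measured once in wild type and in the das1Δ or doa10Δ background.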

[2] = tested on: Saccharomyces cerevisiae; test: protein stability index of tFT-peptide fusion in deletion strain of DAS1 (PSI (0-1 scale)); higher = more stable (slower turnover)
Description: as §1
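Wherever protein stability index of tFT-peptide fusion in deletion strain of DAS1 is given: PSI is a weighted mean of each variant's read distribution over the sorted stability bins, computed only for variants having over 10 reads in total.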
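Wherever protein stability index of tFT-peptide fusion in wild type is given: PSI derived as read-weighted mean over the 8 sorting bins, only variants exceeding 10 total reads kept, mCherry placed adjacent to the peptide and sfGFP distal.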

Sequence | protein stability index [1] | protein stability index [2]
PDKSNHLIKLLN | 0.157 | 0.652
FSMKWTFRYWVN | 0.0449 | 0.565
RLIQPLPVQFYN | 0.0309 | 0.783
PDKRNHLIKLKN | 0.273 | 0.599
CTSCGYKCRTNN | 0.601 | 0.661
KKHKKLQKQKIN | 0.054 | 0.602
CTSCGCKFRTNN | 0.543 | 0.694
LKILRQFMNHQN | 0.192 | 0.664
PSIAASFWRVVG | 0.143 | 0.695
PSLAASFWVVVG | 0.249 | 0.554
VRGAVVGWRLVG | 0.141 | 0.66
RLIQPLPVQSLN | 0.457 | 0.612
FSMRWTFRVWVN | 0.035 | 0.271
LVVYLSCVACIH | 0.0123 | 0.0535
VTSCGYKFRTNN | 0.214 | 0.674
WVVYLSCVACIN | 0.0879 | 0.0589
QKILRQKMNHQN | 0.152 | 0.678
FSMRWTFRYWVNM | 0.113 | 0.543
FSMRWRFRYWVN | 0.0911 | 0.584
PDKRNHAIKLLN | 0.186 | 0.603

Sequence | protein stability index [1] | protein stability index [2]
PSLAKSFWRVVG | 0.375 | 0.702
PSLAASFWRVAG | 0.256 | 0.671
VRGAVGGWILVG | 0.25 | 0.638
LKILRQKLNHQN | 0.187 | 0.676
RLIQPYPVQFLN | 0.0613 | 0.578
FFMRWTFRYWVN | 0.0417 | 0.371
CTSCGYKFATNN | 0.385 | 0.695
RLIQGLPVQFLN | 0.0788 | 0.651
CTSCGYKFRTNNK | 0.669 | 0.682
ARWRVGYWRGAS | 0.478 | 0.691
PSLAASFWRVVD | 0.48 | 0.698
LKILRQKMIHQN | 0.196 | 0.682
KKHKKGQKQRIN | 0.127 | 0.642
PVKRNHLIKLLN | 0.129 | 0.608
PSLAASFWRVVC | 0.119 | 0.679
LKILRQKMSHQN | 0.37 | 0.682
KKHKKGQKQKLN | 0.133 | 0.602
LVVYLTCVACIN | 0.0129 | 0.0371
RLIQPLYVQFLN | 0.0572 | 0.629
FSMRWTFRYWVNG | 0.431 | 0.537

Sequence | protein stability index [1] | protein stability index [2]
KKHKKGQKQKINE | 0.635 | 0.662
LKIKRQKMNHQN | 0.208 | 0.683
LVVYLSCVADIN | 0.108 | 0.168
MRWRVGLWRGAS | 0.143 | 0.727
LVVWLSCVACIN | 0.0122 | 0.0381
LKILRQKMNHQH | 0.231 | 0.68
LVVYLYCVACIN | 0.0123 | 0.0269
CTSCGYKFRTNF | 0.417 | 0.712
KKHKKGQKCKIN | 0.153 | 0.59
VRGAVGGWRLVGI | 0.664 | 0.679
KKHKKGQKQNIN | 0.618 | 0.54
LVVYLSCVACKN | 0.034 | 0.0769
LVVYLSCVKCIN | 0.146 | 0.319
PDKCNHLIKLLN | 0.209 | 0.586
LVVYLSCVACDN | 0.249 | 0.272
RLIQPLPVTFLN | 0.0559 | 0.7
LKILRDKMNHQN | 0.232 | 0.677
CTKCGYKFRTNN | 0.258 | 0.687
